Reference: publication PMC5643395

Experiments:
Test in all cases: ensemble FRET (microplate), salt-induced disassembly
Conditions in all cases: Reconstitution by dialysis from 2 M to 5 mM NaCl in 10 mM Tris-HCl, 0.1 mM EDTA; FRET over NaCl titration (FRET buffer and temperature not in the material) …
histone octamer H2A R81A = system: histone octamer H2A R81A
histone octamer H2A R88E = system: histone octamer H2A R88E
histone octamer H2A R81E = system: histone octamer H2A R81E
[1] = system: histone octamer H2A R81A/R88A
[2] = system: histone octamer H2A R81E/R88E
histone octamer H2A R88A = system: histone octamer H2A R88A

Widom 601 170 bp was tested, and the K half (histone octamer H2A R81A) was 632 mM NaCl, the K half (histone octamer H2A R88E) was 455 mM NaCl and the K half (histone octamer H2A R81E) was 468 mM NaCl. For the same substance, the K half [1] was 568 mM NaCl, the K half [2] was 452 mM NaCl and the K half (histone octamer H2A R88A) was 668 mM NaCl.
